B1: SMOC2 (parent)
chain: PALETQPQGDEEDIASRYPTLWTE

Variants of: B1
Assay: protein stability index of a GFP-peptide fusion (GPS, HEK-293T) (PSI 1-6); higher = more stable
Conditions: c terminus: a fixed tail appended
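Further: lentivirally expressed fusions sorted by FACS into six bins by GFP to DsRed ratio, PSI derived from sequencing read proportions per bin multiplied by bin number.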

Variant	protein stability index
D13Q	4.21
D13V	3.93
D13N	4.23
D13C	3.9
D13K	2.67
D13S	3.97
D13H	3.71
D13L	3.84
D13F	4.14
D13P	3.63
D13M	4.09
D13E	3.76
D13A	4.35
R17Q	4.78
R17G	4.71
R17N	4.23
R17I	4.73
R17P	4.53
R17Y	3.69
R17K	4.35
R17D	4.94
R17T	4.29
R17S	4.26
R17E	4.5

Variant	protein stability index
R17W	4.2
R17V	4.36
R17H	4.38
T23Q	4.43
T23V	2.74
T23N	5.66
T23W	5.08
T23L	5.29
T23P	5.28
T23M	5.08
T23K	4.58
T23H	5.75
T23Y	5.37
T23I	4.28
T23E	5.39
T23D	5.55
T23S	5.28
T23A	4.21
T23C	5.02
Y18S	4.65
Y18T	4.67
Y18K	3.34
Y18R	4.53
Y18G	4.61

Variant	protein stability index
Y18V	4.07
Y18F	4.25
Y18I	4.18
Y18H	4.87
Y18P	4.14
Y18C	4.32
Y18D	5.89
P1Q	3.91
P1F	3.44
P1G	4.33
P1N	4.08
P1M	4.25
P1H	4.32
P1C	3.24
P1Y	3.1
P1S	4.78
P1A	4.26
P1W	3.84
P1L	4
P1V	4.24
P1R	4.74
P1D	4.56
P1I	4.09
Q6D	4.92

Variant	protein stability index
Q6K	4.26
Q6Y	4.66
Q6M	4.13
Q6V	3.97
Q6H	4.73
Q6P	4.55
Q6N	4.3
Q6G	5.04
Q6I	4.77
Q6L	4
E4Y	2.74
E4A	4.42
E4C	3.96
E4K	4.31
E4T	4.46
E4V	4.11
E4M	3.95
E4F	3.64
E4D	4.91
E4R	3.77
E4L	4.22
E4W	3.52
E4H	3.77
E4Q	4.9

Variant	protein stability index
E4I	3.21
E11I	3.36
E11T	4.18
E11F	3.95
E11N	4.26
E11G	4.04
E11L	3.84
E11H	3.41
E11A	3.79
E11R	3.98
E11Y	4.02
E11W	3.96
E11D	4.21
E11S	4.38
E24H	4.47
E24A	4.67
E24F	4.17
E24M	3.94
E24V	4.22
E24I	3.97
E24Q	4.82
E24L	4.19
E24N	3.73
E24K	5.17

Variant	protein stability index
E24R	4.81
E24W	4.17
E24D	4.68
E24G	5.22
E24T	4.65
Q8D	5.29
Q8T	4.86
Q8S	4.74
Q8G	3.6
Q8F	4.48
Q8A	4.88
Q8V	5.17
Q8C	5.05
Q8R	4.6
Q8Y	3.89
Q8K	3.9
Q8L	4.05
Q8E	5.1
Q8N	5.23
Q8I	5.02
Q8P	4.33
Q8W	4.16
Q8M	4.87
L3G	4.33

Variant	protein stability index
L3R	4.44
L3Q	4.97
L3E	5.59
L3I	5.31
L3H	4.36
L3Y	4.81
L3C	5.01
L3D	5.37
L3K	4.27
L3W	4.04
L3N	4.23
L3M	4.83
L3V	4.87
L3F	4.85
E12V	3.75
E12Q	4.42
E12S	4.46
E12W	3.39
E12N	4.11
E12Y	3.75
E12H	3.74
E12L	3.68
E12P	4.33
E12F	4.2

Variant	protein stability index
E12C	4.12
E12R	3.93
E12G	2.63
E12K	3.56
E12I	3.68
E12D	4.41
G9D	4.63
G9Y	4.74
G9H	4.71
G9P	4.88
G9V	4.87
G9F	4.89
G9M	4.76
G9A	4.92
G9L	4.84
G9K	4.55
G9E	5.22
G9C	5.16
G9T	4.97
G9S	5.09
I14M	3.95
I14G	4.53
I14E	4.79
I14A	4.79

Variant	protein stability index
I14N	5.01
I14S	4.64
I14V	4.19
I14H	4.65
I14D	5.77
I14P	4.99
I14C	4.14
I14T	5.06
I14Y	4.39
I14F	4.42
D10K	3.53
D10H	3.56
D10S	4.44
D10E	4.16
D10I	3.68
D10T	4.14
D10C	3.36
D10R	3.86
D10Q	4.41
D10N	4.49
D10A	4.36
D10M	3.05
D10F	3.39
D10Y	3.51

Variant	protein stability index
L21V	4.75
L21F	4.27
L21N	5.73
L21I	5.53
L21T	3.98
L21A	5.65
L21M	5.37
L21C	4.64
L21K	5.12
L21D	5.72
L21S	4.75
L21Q	5.66
L21P	5.64
L21W	5.13
W22R	5.39
W22F	5.71
W22T	5.67
W22S	5.77
W22E	5.2
W22I	5.58
W22N	5.8
W22K	5.3
W22C	5.32
W22D	5.62

Variant	protein stability index
W22M	5.49
W22V	5.9
W22G	4.47
S16H	3.96
S16L	4.81
S16I	4.52
S16P	5.27
S16Q	5.17
S16F	4.61
S16W	3.99
S16C	4.63
S16D	4.76
S16M	5.09
S16Y	4.31
S16R	4.3
S16E	4.94
S16G	5.21
T5V	3.77
T5Y	4.65
T5W	4.51
T5K	3.88
T5D	5.12
T5A	4.8
T5G	4.3

Variant	protein stability index
T5N	4.54
T5C	4.61
T5F	4.58
T5Q	4.72
T5L	4.45
A15M	4.67
A15G	4.63
A15E	4.29
A15D	4.33
A15Y	4.53
A15Q	4.42
A15K	3.78
A15C	4.1
A15I	4.57
A15V	3.87
A15H	4.11
P7L	4.6
P7A	4.07
P7R	3.81
P7H	4.29
P7W	4.02
P7M	4.62
P7S	4.68
P7C	4.46

Variant	protein stability index
P7N	4.48
P7F	4.08
P7D	4.67
P7T	4.54
P7Y	4.28
P19D	4.97
P19S	4.6
P19M	4.32
P19Q	5.13
P19C	5.15
P19K	4.32
P19V	5.11
P19I	4.24
P19A	5.73
P19E	5.49
P19R	4.2
P19G	4.87
P19Y	4.45
P19L	4.87
P19T	4.53
P19H	4.18
A2W	3.88
A2M	4.6
A2F	4.53

Variant	protein stability index
A2V	4.67
A2K	4.13
A2I	4.07
A2S	4.88
A2R	3.7
A2E	4.48
A2H	4.74
A2T	4.11
A2C	4.4
A2D	5.13
A2L	5.17
T20F	4.6
T20A	4.31
T20E	4.41
T20I	3.3
T20Y	4.1
T20N	4.27
T20C	3.77
T20W	4.67
T20P	4.78
T20M	4.4
T20K	4.37

Reference: the supplement of paper PMC10567573
